{
  "source": "patent US10100120B2",
  "about": "“Antibody which specifically binds to human CRTH2” (KYOWA HAKKO KIRIN CO., LTD, priority 2015, dated 2018)",
  "molecules": {"B1": {"name": "LV0HV1: humanized Lym2 antibody, VL LV0 (SEQ ID NO: 33), VH HV1 (SEQ ID NO: 51) (antibody, V domains shown)", "VH": "EVQLVESGGGVVQPGRSLRLSCAASGFTFSNYYMAWVRQAPGKGLEWVATISYDGSSTYYRDSVKGRFTISRDNAKNSLYLQMNSLRAEDTATYYCARHRGYYYSGAGYFDYWGQGTMVTVSS", "VL": "DIVMTQTPLSLPVTPGESASISCRSSQSLEYSDGYTYLEWYLQKPGQSPQVLIYGVSNRFSGVPDRFSGSGSGTDFTLKISRVEAEDVGVYYCFQATHDPLTFGQGTKLEIK"}},
  "target": "T1, human CRTH2 (Homo sapiens, UniProt Q9Y5Y4)",
  "T1 construct": "expressed in transfected cells",
  "T1 sequence (Q9Y5Y4 1-395)": "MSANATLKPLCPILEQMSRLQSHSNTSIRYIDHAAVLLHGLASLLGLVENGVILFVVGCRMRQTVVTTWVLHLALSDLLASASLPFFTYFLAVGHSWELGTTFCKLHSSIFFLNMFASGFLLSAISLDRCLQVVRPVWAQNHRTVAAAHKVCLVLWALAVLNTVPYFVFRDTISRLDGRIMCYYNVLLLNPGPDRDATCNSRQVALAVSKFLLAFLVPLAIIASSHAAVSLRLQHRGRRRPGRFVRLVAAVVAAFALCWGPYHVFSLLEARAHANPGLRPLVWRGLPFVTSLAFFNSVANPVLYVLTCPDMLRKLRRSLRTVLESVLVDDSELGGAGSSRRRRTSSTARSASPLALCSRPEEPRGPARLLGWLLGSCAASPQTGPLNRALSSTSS",
  "test": "Reactivity in presence of ligand DKPGD2, human CRTH2-expressing 293 EBNA cells",
  "format": "binding",
  "details": "DKPGD2 10 μM; antibody 0.3, 1 and 3 μg/mL; relative to absence of DKPGD2; FIG. 13",
  "description": "Human CRTH2-expressing 293 EBNA cells were established by introducing the human CRTH2 gene expression pAMoh vector prepared in Example 1-(1)-(ii) into 293 EBNA cells (Invitrogen) using Fugene 6 (Promega Corporation) and selecting drug-resistant cells by culture medium formed of 10% FBS, 0.25 mg/mL of G418 (NACALAI TESQUE, Inc.), […] (NACALAI TESQUE, Inc.), and 300 μg/mL of hygromycin B (Wako Pure Chemical Industries) in DMEM.\nThe human CRTH2-expressing 293 EBNA cells were peeled using 0.02% EDTA solution (NACALAI TESQUE, Inc.), washed with PBS, and suspended with the above-described culture medium. […]\nAfter the cells were washed 5 times with SM, 10 μg/mL of goat anti-Human IgG Alexa 647 (Molecular Probes) diluted with SM was added to wells to which LV0HV1, hu19A2 v52, hu8B1 v1, ch3C12, or ch31A5 was added, 10 μg/mL of goat anti-Rat IgG Alexa 647 (Molecular Probes) diluted with SM was added to wells to which BM16 was added, and 10 μg/mL of goat anti-Mouse IgG Alexa 647 (Molecular Probes) diluted with SM was added to wells to which 301108 was added at a final concentration of 10 μg/mL to cause a reaction at 4° C. for 40 minutes. After the cells were washed again, the cells were suspended with SM, and the fluorescent intensity was analyzed by flow cytometry (BD Biosciences, FACS CantoII).",
  "data": [
    {"molecule": "B1", "values": [
      {"measurement": "binding to human CRTH2-expressing cells in the presence of DKPGD2", "result": "almost not decreased"}
    ]}
  ]
}
